# B1: TPR t1 (parent)
# chain: GACCAAUCUGCCCUCAGAGCUCGAGAACAUCUUCGGAUGCAGAGGAGGCAGGCUUCGGUGGCGCGAUAGCGCCAACGUCCUCAACCUCCAAUGCAUCCCACCACAUGAUGAUGCCUGAAGAGCCUUGGUUUUUUG
# Variants of: B1
# Experiment: polymerase ribozyme fitness, log enrichment relative to wild type (log ratio); higher = more active; in vitro selection for triplet polymerase activity
# Method in brief: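 Input and output libraries were sequenced on Illumina after a single in vitro selection round, run in triplicate on PCR-built, transcribed mutant libraries of each subunit of a heterodimeric triplet polymerase ribozyme. Selection annealed libraries to a biotinylated primer, the partner subunit and triplets, incubated them frozen at −7 °C, then gel-excised extended constructs for streptavidin-bead capture and RT-PCR. Genotypes with ≥10 input reads and ≥1 read per output were kept. Fitness is the logarithm, taken in base 2, of genotype enrichment divided by wild-type enrichment, using inverse-variance-weighted replicate averages.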
row,Variant,polymerase ribozyme fitness (log ratio)
1,C53U U126G,-1.77
2,C73G U78A C94A U125G,-1.59
3,G61A A84U,-0.89
4,G47A U92C G127A,-5.01
5,G17U U133G,-2.64
6,A24C C49U C82U,-5.77
7,C49U A119U G122U,-1.11
8,C34G A41C A100C A103C U112A,-6.4
9,C22G A29C A84C,-3.73
10,C13A G61U,-1.08
11,C20U C53A,-3.19
12,U54C G110A,-1.29
13,A68G A100C,-4.96
14,G69U U81G A103U,-6.76
15,G60U U130A,-0.92
16,G77C A121U,0.189
17,A46G C80U C94U,-1.95
18,C89A U112A A121U U131C,0.436
19,U14C C72A A111U,-6.13
20,G107A G120U,-4.71
21,A27G C72A G93C G120U,-2.9

row,Variant,polymerase ribozyme fitness (log ratio)
1,G44A C86G U96A,-3.83
2,G65U C73U,-5.34
3,C80A C97G G117C,-7.22
4,C12U A84C G120U,1.69
5,C12A C49U U109A U116A C123G,-6.73
6,U7A A41G,0.181
7,A74U G93U G120A U125G U129G,-2.55
8,A95U U132A,-1.52
9,G58C C85U G120A,0.436
10,C22A U54C,-4.71
11,C3G A111C,-1.69
12,G44A C53U U125G,-2.16
13,U9A G127U,0.46
14,G61C G113C,-3.19
15,A2G U14G C70A C101G G120U G127C,-3.71
16,C13U G48A G122U,0.102
17,U14G U96A G110A,-3.75
18,A2U C8G C15U C64U,-2.18
19,C34G C56A U106C,-6
20,G36U G60A,-1.61
21,U14G G48A C104A,-3.69

row,Variant,polymerase ribozyme fitness (log ratio)
1,G10A G69U C79A A103C C115U G122A,-5.83
2,G47C G61U C114U,-3.31
3,G23U G120C,-3.8
4,G77A U78G,-0.219
5,C3A G57U A75C C85G U112A C123U,-1.77
6,G77A U87A C101G,-2.13
7,A2U A43U C53G C73U U106A,-7.47
8,G51A C64A A84C G117C,-6.48
9,C62G U106G,-4.29
10,A5U C13U G47A G63U A91U U109C G127C,-6.28
11,U81A C97U,-1.89
12,C13G U112A,0.148
13,G45A A74G A95U,-1.3
14,C12A G47C C49A U125A,-2.88
15,G61A C62G A75G A95U A121C,-5.37
16,C12U C20A,-1.94
17,U21G C62A,-2.26
18,C12A U14G C72U U81C G93C A119U G120C,-0.415
19,A43G A50C G57U,-2.8
20,C85G C88A C101A,-2.28
21,C8U C40G G42U C49A U130A,-2.72

row,Variant,polymerase ribozyme fitness (log ratio)
1,C97U C101U C102A,-4.12
2,U9A G58A G61A C85A,-1.75
3,A43G C70G G110U,-5.99
4,C56U C62U C123A,0.0354
5,C31U C53U C72U A103U,-6.73
6,A2G C85U A95G,-2.08
7,C12U G61A,0.126
8,C11G G58C C97A C104A,-4.9
9,U7G G52U G57C C102A A111C,-2.69
10,C62A G122U,0.143
11,A50U G122A,-1.23
12,C70U A95U C124A,-2.31
13,G36A G117C,-4.58
14,U7G U54C G58A U92C,-0.551
15,C4U A41C A111U A119C,-6.22
16,A18U G42A C53G G71C C85U C89A,-4.28
17,G110U,-1.08
18,A6C A18U A50C G77U U87A,-3.65
19,U7G G44A G63C U92A U125A,-4.07
20,C15U A84U U87A A105G G113U,-5.89
